B1: THAP1; numbered along this chain (parent)
chain: MVQSCSAYGCKNRYDKDKPVSFHKFPLTRPSLCKEWEAAVRRKNFKPTKYSSICSEHFTPDCFKRECNNKLLKENAVPTIFLCTEPHDKKEDLLEPQEQLPPPPLPPPVSQVDAAIGLLMPPLQTPVNLSVFCDHNYTVEDTMHQRKRIHQLEQQVEKLRKKLKTAQQRCRRQERQLEKLKEVVHFQKEKDDVSERGYVILPNDYFEIVEVPA

Variants of: B1
Test: THAP1 transcriptional activity (GFP+/GFP- enrichment relative to wild-type constructs) (ratio to WT); higher = more THAP1 activity (PSMB5 reporter activation)
Conditions: with PSMB5 promoter-GFP reporter
Outline: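 Variants were counted by Illumina sequencing of genomic DNA amplicons from BFP+ cells sorted into GFP-bright and GFP-dim bins five days after lentiviral transduction, in duplicate at MOI ~0.3. The library changed each of residues 2–213 of human THAP1 to all 20 amino acids and was introduced into THAP1-knockout HEK-293T cells with mClover3 knocked in at endogenous PSMB5. Activity equals the replicate-mean bright/dim read fold change over the mean of wild-type synonymous constructs.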
With T165Y the THAP1 transcriptional activity was 0.379.
Variant T165F has a THAP1 transcriptional activity of 0.262.
For R41Y, the THAP1 transcriptional activity was 0.274.
I208Y showed a THAP1 transcriptional activity of 1.14.
With Y137F the THAP1 transcriptional activity was 0.161.
Work on Y137S yielded a THAP1 transcriptional activity of 0.137.
In the case of Y137E, the THAP1 transcriptional activity is reported as 0.152.
Variant K158E has a THAP1 transcriptional activity of 0.562.
In the case of T59D, the THAP1 transcriptional activity is reported as 0.292.
Work on T59W yielded a THAP1 transcriptional activity of 0.0856.
Work on T59E yielded a THAP1 transcriptional activity of 1.07.
T59G gave a THAP1 transcriptional activity of 0.413.
T59V was tested, and the THAP1 transcriptional activity was 0.269.
Y198L showed a THAP1 transcriptional activity of 1.02.
F45L showed a THAP1 transcriptional activity of 0.142.
F45V was tested, and the THAP1 transcriptional activity was 0.0786.
R160M showed a THAP1 transcriptional activity of 0.278.
R160I was tested, and the THAP1 transcriptional activity was 0.228.
In the case of H185R, the THAP1 transcriptional activity is reported as 1.31.
For V2K, the THAP1 transcriptional activity was 0.0614.
With V2C the THAP1 transcriptional activity was 0.162.
Variant R29K has a THAP1 transcriptional activity of 0.357.
R29F gave a THAP1 transcriptional activity of 0.154.
R29L gave a THAP1 transcriptional activity of 0.0833.
With V20F the THAP1 transcriptional activity was 0.204.
V20N showed a THAP1 transcriptional activity of 0.161.
V20H gave a THAP1 transcriptional activity of 0.115.
In the case of E140Y, the THAP1 transcriptional activity is reported as 1.16.
E140F was tested, and the THAP1 transcriptional activity was 1.16.
Work on E140G yielded a THAP1 transcriptional activity of 2.94.
For E207H, the THAP1 transcriptional activity was 0.501.
In the case of F132A, the THAP1 transcriptional activity is reported as 0.892.
F132R showed a THAP1 transcriptional activity of 0.942.
Work on F132C yielded a THAP1 transcriptional activity of 0.597.
With F132T the THAP1 transcriptional activity was 0.436.
For C67E, the THAP1 transcriptional activity was 0.119.
Work on P78M yielded a THAP1 transcriptional activity of 0.495.
In the case of R175H, the THAP1 transcriptional activity is reported as 0.492.
Work on R175Y yielded a THAP1 transcriptional activity of 0.619.
With R175D the THAP1 transcriptional activity was 0.345.
Q168Y was tested, and the THAP1 transcriptional activity was 0.173.
E85H gave a THAP1 transcriptional activity of 0.704.
For E85Y, the THAP1 transcriptional activity was 0.792.
E85R gave a THAP1 transcriptional activity of 0.558.
For E85V, the THAP1 transcriptional activity was 0.702.
A76M was tested, and the THAP1 transcriptional activity was 0.215.
A76E gave a THAP1 transcriptional activity of 0.444.
Work on F63C yielded a THAP1 transcriptional activity of 0.139.
In the case of P202A, the THAP1 transcriptional activity is reported as 1.15.
With P202M the THAP1 transcriptional activity was 1.1.
Variant D88V has a THAP1 transcriptional activity of 0.781.
D88T showed a THAP1 transcriptional activity of 0.582.
V127A gave a THAP1 transcriptional activity of 0.82.
Work on D192G yielded a THAP1 transcriptional activity of 1.19.
In the case of D192H, the THAP1 transcriptional activity is reported as 0.799.
D192W was tested, and the THAP1 transcriptional activity was 1.13.
Work on Q167T yielded a THAP1 transcriptional activity of 0.585.
For Q167A, the THAP1 transcriptional activity was 0.311.
E74G gave a THAP1 transcriptional activity of 0.501.
E74L was tested, and the THAP1 transcriptional activity was 0.384.
L94A was tested, and the THAP1 transcriptional activity was 1.59.
For E37G, the THAP1 transcriptional activity was 0.195.
Work on R146D yielded a THAP1 transcriptional activity of 0.548.
With V211F the THAP1 transcriptional activity was 1.01.
S51L gave a THAP1 transcriptional activity of 0.111.
In the case of N12M, the THAP1 transcriptional activity is reported as 0.199.
With P19I the THAP1 transcriptional activity was 0.186.
N203A gave a THAP1 transcriptional activity of 1.28.
In the case of C33P, the THAP1 transcriptional activity is reported as 0.117.
For F25M, the THAP1 transcriptional activity was 0.131.
V209D was tested, and the THAP1 transcriptional activity was 0.517.
N69M was tested, and the THAP1 transcriptional activity was 0.597.
For N69P, the THAP1 transcriptional activity was 0.092.
With N69S the THAP1 transcriptional activity was 0.193.
Variant N69C has a THAP1 transcriptional activity of 0.181.
Work on N69E yielded a THAP1 transcriptional activity of 0.0951.
With Q124G the THAP1 transcriptional activity was 0.787.
Q124E was tested, and the THAP1 transcriptional activity was 0.458.
With K64G the THAP1 transcriptional activity was 0.219.
D141W showed a THAP1 transcriptional activity of 0.255.
For D141H, the THAP1 transcriptional activity was 0.514.
Variant D141I has a THAP1 transcriptional activity of 0.309.
In the case of K190G, the THAP1 transcriptional activity is reported as 0.878.
Work on K190L yielded a THAP1 transcriptional activity of 0.835.
In the case of F22M, the THAP1 transcriptional activity is reported as 0.0987.
Work on F22Q yielded a THAP1 transcriptional activity of 0.121.
F22E showed a THAP1 transcriptional activity of 0.0853.
For F22K, the THAP1 transcriptional activity was 0.0858.
In the case of P106R, the THAP1 transcriptional activity is reported as 1.58.
In the case of P106Y, the THAP1 transcriptional activity is reported as 1.49.
P106K showed a THAP1 transcriptional activity of 1.89.
P106L was tested, and the THAP1 transcriptional activity was 0.994.
S21M was tested, and the THAP1 transcriptional activity was 0.182.
With S21Q the THAP1 transcriptional activity was 0.176.
Variant L118I has a THAP1 transcriptional activity of 1.1.
Work on I149F yielded a THAP1 transcriptional activity of 0.539.
For I149Y, the THAP1 transcriptional activity was 0.445.
With V109L the THAP1 transcriptional activity was 2.8.
With Y8K the THAP1 transcriptional activity was 0.356.
K161R gave a THAP1 transcriptional activity of 0.649.
Variant K161G has a THAP1 transcriptional activity of 0.289.
K161W was tested, and the THAP1 transcriptional activity was 0.242.
In the case of N44W, the THAP1 transcriptional activity is reported as 0.123.
With R65P the THAP1 transcriptional activity was 0.671.
Work on R65N yielded a THAP1 transcriptional activity of 0.596.
Variant D15S has a THAP1 transcriptional activity of 0.562.
L82C showed a THAP1 transcriptional activity of 0.521.
L82R gave a THAP1 transcriptional activity of 0.825.
Variant L82P has a THAP1 transcriptional activity of 2.38.
Work on K70I yielded a THAP1 transcriptional activity of 0.33.
K24A was tested, and the THAP1 transcriptional activity was 0.122.
K24T was tested, and the THAP1 transcriptional activity was 0.109.
K24R gave a THAP1 transcriptional activity of 1.73.
In the case of P30S, the THAP1 transcriptional activity is reported as 0.33.
For P30Y, the THAP1 transcriptional activity was 0.21.
H87Y gave a THAP1 transcriptional activity of 1.16.
With S4Q the THAP1 transcriptional activity was 0.114.
Variant D191M has a THAP1 transcriptional activity of 1.04.
For D191I, the THAP1 transcriptional activity was 0.874.
L129N was tested, and the THAP1 transcriptional activity was 1.4.
K46R was tested, and the THAP1 transcriptional activity was 0.568.
In the case of K46T, the THAP1 transcriptional activity is reported as 0.869.
In the case of K46D, the THAP1 transcriptional activity is reported as 0.0595.
In the case of K46S, the THAP1 transcriptional activity is reported as 0.379.
In the case of C83D, the THAP1 transcriptional activity is reported as 2.06.
T48C gave a THAP1 transcriptional activity of 0.128.
Variant T48Y has a THAP1 transcriptional activity of 0.0779.
T48N showed a THAP1 transcriptional activity of 0.545.
For Q3M, the THAP1 transcriptional activity was 0.486.
A39T gave a THAP1 transcriptional activity of 0.26.
A39D showed a THAP1 transcriptional activity of 0.172.
Work on S31F yielded a THAP1 transcriptional activity of 0.363.
In the case of S31K, the THAP1 transcriptional activity is reported as 1.13.
S31Y was tested, and the THAP1 transcriptional activity was 0.535.
For G117I, the THAP1 transcriptional activity was 0.169.
G117A was tested, and the THAP1 transcriptional activity was 0.485.
H23G gave a THAP1 transcriptional activity of 0.088.
For H23V, the THAP1 transcriptional activity was 0.0823.
H57D showed a THAP1 transcriptional activity of 0.0578.
In the case of K188G, the THAP1 transcriptional activity is reported as 1.05.
Variant S6D has a THAP1 transcriptional activity of 0.163.
S6P showed a THAP1 transcriptional activity of 0.185.
In the case of S6L, the THAP1 transcriptional activity is reported as 0.0726.
S6E gave a THAP1 transcriptional activity of 0.153.
W36N gave a THAP1 transcriptional activity of 0.101.
In the case of V156R, the THAP1 transcriptional activity is reported as 0.349.
For V156L, the THAP1 transcriptional activity was 0.731.
For V156Y, the THAP1 transcriptional activity was 0.362.
With P101Q the THAP1 transcriptional activity was 1.61.
In the case of P103K, the THAP1 transcriptional activity is reported as 1.31.
P103E gave a THAP1 transcriptional activity of 1.22.
F186E was tested, and the THAP1 transcriptional activity was 1.64.
Variant Y50A has a THAP1 transcriptional activity of 0.294.
In the case of Y50Q, the THAP1 transcriptional activity is reported as 0.0845.
Y50V was tested, and the THAP1 transcriptional activity was 0.12.
R13Y was tested, and the THAP1 transcriptional activity was 0.0688.
R13Q was tested, and the THAP1 transcriptional activity was 0.122.
Variant S110T has a THAP1 transcriptional activity of 0.793.
For M120Q, the THAP1 transcriptional activity was 1.57.
For M120A, the THAP1 transcriptional activity was 0.822.
In the case of M120K, the THAP1 transcriptional activity is reported as 1.37.
Variant M120L has a THAP1 transcriptional activity of 0.534.
P60G gave a THAP1 transcriptional activity of 0.443.
Variant P60M has a THAP1 transcriptional activity of 0.374.
With D92N the THAP1 transcriptional activity was 1.64.
D92M showed a THAP1 transcriptional activity of 0.739.
D92Y gave a THAP1 transcriptional activity of 0.942.
